{"source": "patent US20230047413A1", "about": "(Janssen / Centocor, published 2023)", "binders": {"B1": {"name": "PT3 Fab (B187) (Fab, V domains shown)", "VH": "EVKLVESGGDLVKPGGSLKLSCAASGFTFSSYAMSWVRQNPEKRLEWVASISKGGNTYYPNSVKGRFTISRDNARNILYLQMSSLRSEDTALYYCARGWGDYGWFAYWGQVTLVTVSA", "VL": "DIKMTQSPSSMYASLGERVTITCKASQDINRYLNWFQQKPGKSPKTLIYRANRLLDGVPSRFSGSGSGQDYSLTISSLDYEDMGIYYCLQYDEFPLTFGDGTKLELK", "notes": "Chimeric Fab: mouse variable regions, human IgG1/kappa constant region, 6xHis tag at the C-terminus of the heavy chain; also called mouse parental Fab of PT3"}}, "key": {"Peptide-1": {"target": "T1, Peptide-1 (human, phosphothreonine 212, phosphoserine 214, phosphothreonine 217 (tau 2N4R numbering); short chain biotin (SCBiot) and dPEG4 at the N-terminus; amide at the C-terminus)", "T1 construct": "also called tau peptide phosphorylated at T212/S214/T217", "T1 sequence (peptide, as listed by the source)": "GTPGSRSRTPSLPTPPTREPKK", "experiment": "SPR ProteOn, peptide captured, Fab as analyte; range of n=2", "experimental": "(§1) The binding affinity of PT3 Fab towards each of the fourteen tau phosphopeptides shown in Table 6 was assessed by surface plasmon resonance (SPR) using a Bio-Rad ProteOn XPR36. Peptides were synthesized by standard chemical methods (New England Peptide) with short-chain biotin and a PEG4 moiety at the N-terminus. Biotinylated peptide was captured on a neutravidin-coated NLC biosensor chip and PT3 Fab was flowed over the surface to measure kinetic parameters.\n(§2) All experiments were performed at 25° C. using phosphate buffered saline, pH 7.4, 0.005% Tween 20 (PBST) as both running buffer and sample dilution buffer. Prior to running samples, the NLC chip was conditioned by running PBST over the chip surface for 1 h. Approximately 5-10 RU of peptide was captured on the chip surface by diluting peptide to 10 ng/mL in PBST and injecting over the flow channels at 30 μL/min for 100 s. Serial dilutions of PT3 Fab (1.1-90 nM) were analyzed and, with the exception of Peptide-8, each concentration was measured in duplicate. After capture of peptides, the antibody titration was injected at 60 μL/min for 3 minutes (association phase), followed by 300 s of buffer only (dissociation phase).\n(§3) The data were double referenced by subtraction of the interspot response and the curves generated by the buffer-only injection. The chip surface was regenerated using a single injection of 0.85% phosphoric acid at 30 μL/min for 100 s contact time, followed by four injections of running buffer before the next antibody titration injection. The data processing and kinetic analysis were done using the instrument software. The data were analyzed using a simple Langmuir 1:1 binding model."}, "Peptide-2 [1]": {"target": "T2, Peptide-2 (human, phosphothreonine 212, phosphothreonine 217 (tau 2N4R numbering); short chain biotin (SCBiot) and dPEG4 at the N-terminus; amide at the C-terminus)", "T2 construct": "also called pT212/pT217-tau peptide (Peptide-2)", "experiment": "SPR ProteOn, peptide captured, Fab as analyte; range of n=2", "experimental": "as §1, §2, §3"}, "Peptide-4 [2]": {"target": "T3, Peptide-4 (human, phosphoserine 210, phosphothreonine 217 (tau 2N4R numbering); SCBiot and dPEG4 at the N-terminus; amide at the C-terminus)", "experiment": "SPR ProteOn, peptide captured, Fab as analyte; range of n=2", "experimental": "as §1, §2, §3"}, "Peptide-5 [3]": {"target": "T4, Peptide-5 (human, phosphoserine 210, phosphoserine 214, phosphothreonine 217 (tau 2N4R numbering); SCBiot and dPEG4 at the N-terminus; amide at the C-terminus)", "experiment": "SPR ProteOn, peptide captured, Fab as analyte; range of n=2", "experimental": "as §1, §2, §3"}, "[4]": {"target": "T5, tau phospho-peptide of the direct ELISA of Example 11", "T5 construct": "also called pT217 peptide; pT212/pT217 peptide", "experiment": "direct ELISA on plate-coated tau phospho-peptide, Fabs", "experimental": "Binding to tau phospho-peptide was analysed by ELISA where peptide (10 ng/mL) was directly coated to the plate overnight. […] After incubation with antibodies, plates were washed and 50 μL per well of HRPO labelled anti-Fab antibody (Jackson Immunoresearch laboratories) (diluted 1:10000 in blocking buffer). After another washing step detection was performed with “One step” TMB (Thermo Scientific) according to the manufacturers' instructions. Plates were analysed in EnVision® 2102 Multilabel Reader (Perkin Elmer, Waltham, Mass., USA). Binding curves were generated using GraphPad Prism7.0 software."}, "Peptide-2 [5]": {"target": "T2, Peptide-2", "experiment": "SPR ProteOn, peptide captured, Fab as analyte; range of n=2; lower end of n=2 range", "experimental": "as §1, §2, §3"}, "Peptide-4 [6]": {"target": "T3, Peptide-4", "experiment": "SPR ProteOn, peptide captured, Fab as analyte; range of n=2; lower end of n=2 range", "experimental": "as §1, §2, §3"}, "Peptide-5 [7]": {"target": "T4, Peptide-5", "experiment": "SPR ProteOn, peptide captured, Fab as analyte; range of n=2; lower end of n=2 range", "experimental": "as §1, §2, §3"}, "Peptide-6": {"target": "Peptide-6 (human, phosphothreonine 217 (tau 2N4R numbering); SCBiot and dPEG4 at the N-terminus; amide at the C-terminus)", "experiment": "SPR ProteOn, peptide captured, Fab as analyte; range of n=2; lower end of n=2 range", "experimental": "as §1, §2, §3"}, "Peptide-7": {"target": "Peptide-7 (human, phosphothreonine 212, phosphoserine 214 (tau 2N4R numbering); SCBiot and dPEG4 at the N-terminus; amide at the C-terminus)", "experiment": "SPR ProteOn, peptide captured, Fab as analyte; range of n=2; lower end of n=2 range", "experimental": "as §1, §2, §3"}}, "note": "Several values for one entry are separate records, joined by “and”; a condition that tells them apart may be missing. Identical values can stand only once."}
{"binder": "B1", "values": [{"measurement": "koff", "setting": "Peptide-1", "value": "0.000236 s⁻¹ and 0.000324 s⁻¹"}, {"measurement": "kon", "setting": "Peptide-1", "value": "870000 M⁻¹ s⁻¹ and 1.67e+06 M⁻¹ s⁻¹"}, {"measurement": "Kd", "setting": "Peptide-2 [1]", "value": "0.09 to 0.45", "unit": "nM"}, {"measurement": "koff", "setting": "Peptide-2 [1]", "value": "9.1e-05", "unit": "s⁻¹"}, {"measurement": "Kd", "setting": "Peptide-4 [2]", "value": "6.48 to 6.71", "unit": "nM"}, {"measurement": "Kd", "setting": "Peptide-5 [3]", "value": "6.6 to 10.8", "unit": "nM"}, {"measurement": "EC50 (read off the curve)", "setting": "[4]", "value": "~0.2", "unit": "nM"}, {"measurement": "kon", "setting": "Peptide-2 [5]", "value": 546000, "unit": "M⁻¹ s⁻¹"}, {"measurement": "koff", "setting": "Peptide-4 [6]", "value": 0.00619, "unit": "s⁻¹"}, {"measurement": "kon", "setting": "Peptide-4 [6]", "value": 922000, "unit": "M⁻¹ s⁻¹"}, {"measurement": "koff", "setting": "Peptide-5 [7]", "value": 0.00569, "unit": "s⁻¹"}, {"measurement": "kon", "setting": "Peptide-5 [7]", "value": 545000, "unit": "M⁻¹ s⁻¹"}, {"measurement": "koff", "setting": "Peptide-6", "value": 0.00606, "unit": "s⁻¹"}, {"measurement": "kon", "setting": "Peptide-6", "value": 524000, "unit": "M⁻¹ s⁻¹"}, {"measurement": "koff", "setting": "Peptide-7", "value": 0.00549, "unit": "s⁻¹"}, {"measurement": "kon", "setting": "Peptide-7", "value": 357000, "unit": "M⁻¹ s⁻¹"}]}
